Experimental data taken from patent publication EP1655308B1, “Adducts of soluble ovalbumin with trivalent iron polyalcohol complexes and method to produce them” (Tedec-Meiji Farma, S.A., priority 2004, dated 2006).

Experiment: Solubility of the lyophilised adduct at 1 %
Assay type: physicochemical
Settings: lyophilised powder, 1 % solution
Method: a) Iron - manitol complex: 31.5 g of FeCl3·6H2O are dissolved jointly with 7.9 g of manitol in 400 ml of water. A solution of 18 g of NaOH in 48 ml of water is added under vigorous stirring. It is heated to 95° C, letting it spontaneously cool down to ambient temperature. b) Treated ovalbumin: 37.50 g of commercial ovalbumin in powder form are dispersed under vigorous stirring in 180 ml of water. A solution of 30 g of NaOH in 550 ml of water is heated separately to 65° C. The protein dispersion is added to the alkaline solution and is digested at 65° C for 15 minutes, with the pH being subsequently adjusted to a value between 8.5 - 10 with 6M HCl. While keeping the solution at 50° C and pH 8.5 - 10, Esperase® (NOVO-NORDISK) is added in a quantity of 1 ‰ of the initial albumin (37.5 mg), proteolytically digesting it, under gentle stirring, for 2 hours at 50° C without any pH correction. Once this time has elapsed, the spontaneous pH is 8.5. The solution is heated to 80° C in order to deactivate the remaining enzymatic activity, the pH is adjusted to 10 with 10M NaOH and, when the temperature goes down to 65° C, 2 ml/l of 30 % w/v H2O2 are added. […]

Adduct between treated ovalbumin and iron (III) - manitol complex [Example 1]
1 % solubility: limpid
